According to patent US20210054067A1 (ALETHIA BIOTHERAPEUTICS, published 2021):

T1: recombinant human KAAG1 (purified protein) (human, UniProt Q9UBP8 1-84, limits assumed)
T1 construct: also called gel filtration purified KAAG1
T1 sequence: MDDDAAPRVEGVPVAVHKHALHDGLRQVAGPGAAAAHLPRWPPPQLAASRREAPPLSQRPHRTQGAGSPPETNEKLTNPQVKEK


Target: T1, recombinant human KAAG1 (purified …)
Assay: SPR (ProteOn XPR36)
Protocol: Remaining active groups were quenched by a 300 s injection of 1M ethanolamine at 30 μL/min in the analyte direction, and this also ensures mock-activated interspots are created for blank referencing. The screening of the 3A4 variants for binding to KAAG1 occurred in two steps: an indirect capture of 3A4 variants from cell supernatant onto the anti-human IgG Fc fragment specific surface in the ligand direction (vertical) followed by a KAAG1 injection in the analyte direction. Firstly, one buffer injection for 30 s at 100 uL/min in the ligand direction was used to stabilize the baseline. […] Four to five 3A4 variants along with wild-type 3A4 were simultaneously injected in individual ligand channels for 240 s at flow 25 μL/min. […] The first ligand channel was left empty to use as a blank control if required. […]
Sensorgrams were aligned and double-referenced using the buffer blank injection and interspots, and the resulting sensorgrams were analyzed using ProteOn Manager software v3.0. The kinetic and affinity values were determined by fitting the referenced sensorgrams to the 1:1 Langmuir binding model using local Rₘₐₓ, and affinity constants (KD M) were derived from the resulting rate constants (kd s⁻¹/kₐ M⁻¹s⁻¹).

Row | fold difference in binding affinity against the best variant H4L2 [fold] | Binder
1 | 4 | humanized 3A4 antibody Lh1Hh1 (antibody, human IgG1, kappa, V domains shown, 100% humanized frameworks; human IgG1 kappa; also called H1L1) VH: QVQLVQSGAEVKKPGASVKVSCKASGYTFTDDYMSWVRQAPGQGLEWMGDINPYNGDTNYNQKFKGRVTITADTSTSTAYMELSSLRSEDTAVYYCARDPGAMDYWGQGTLVTVSS VL: DIVMTQTPLSLPVTPGEPASISCRSSQSLLHSNGNTYLEWYLQKPGQSPQLLIYTVSNRFSGVPDRFSGSGSGTDFTLKISRVEAEDVGVYYCFQGSHVPLTFGQGTKLEIKR

Target: T1, recombinant human KAAG1 (purified …)
Assay: surface plasmon resonance (told in the summary)

Row | Kd [nM] | fold lower affinity than 3A4 [fold] | Binder
2 | > 200 | 20 | 3G10 anti-KAAG1 antibody (antibody, V domains shown) VH: EIQLQQSGPELVKPGASVKISCKASGYTFTDNYMNWVKQSHGKSLEWIGDINPYYGTTTYNQKFKGKATLTVDKSSRTAYMELRGLTSEDSAVYYCARDDWFDYWGQGTLVTVSA VL: DVLMTQTPRSLSVSLGDQASISCRSSQSLLHSNGNTYLEWYLQKPGQPPKVLIYKVSNRFSGVPDRFSGSGSGTDFTLKISGVEAEDLGVYYCFQGSHVPLTFGAGTKLELK
3 | > 200 | 20 | 3D3 anti-KAAG1 antibody (chimeric 3D3) (antibody, V domains shown) VH: EVQLQQSVAELVRPGASVTLSCKASGYIFTDYEIHWVKQTPVHGLEWIGVIDPETGNTAFNQKFKGKATLTADISSSTAYMELSSLTSEDSAVYYCMGYSDYWGQGTTLTVSS VL: DIVMTQSPSSLAVSIGQKVTMNCKSSQSLLNSNFQKNFLAWYQQKPGQSPKLLIYFASTRESSIPDRFIGSGSGTDFTLTISSVQAEDLADYFCQQHYSTPLTFGAGTKLELK

Target: T1, recombinant human KAAG1 (purified …)
Assay: SPR as above; KD relative to LcHc
Protocol: Immediately after the activation, a 13 μg/mL solution of anti-human IgG Fc fragment specific in 10 mM NaOAc pH 4.5 was injected in the analyte direction at a flow rate of 25 μL/min until approximately 8000 resonance units (RUs) were immobilized. Remaining active groups were quenched by a 300 s injection of 1M ethanolamine at 30 μL/min in the analyte direction, and this also ensures mock-activated interspots are created for blank referencing. The screening of the 3A4 variants for binding to KAAG1 occurred in two steps: an indirect capture of 3A4 variants from cell supernatant onto the anti-human IgG Fc fragment specific surface in the ligand direction (vertical) followed by a KAAG1 injection in the analyte direction. Firstly, one buffer injection for 30 s at 100 uL/min in the ligand direction was used to stabilize the baseline. […] Four to five 3A4 variants along with wild-type 3A4 were simultaneously injected in individual ligand channels for 240 s at flow 25 μL/min. […] The first ligand channel was left empty to use as a blank control if required. This 3A4 capture step was immediately followed by two buffer injections in the analyte direction to stabilize the baseline, and then the gel filtration purified KAAG1 was injected. For a typical screen, five KAAG1 concentrations (8, 2.66, 0.89, 0.29, and 0.098 nM) and buffer control were simultaneously injected in individual analyte channels at 50 μL/min for 120 s with a 600 s dissociation phase, resulting in a set of binding sensorgrams with a buffer reference for each of the captured 3A4 variants. The anti-human IgG Fc fragment specific—3A4 complexes were regenerated by a 18 s pulse of 0.85% phosphoric acid for 18 s at 100 μL/min to prepare the anti-human IgG Fc fragment specific surface for the next injection cycle.
Sensorgrams were aligned and double-referenced using the buffer blank injection and interspots, and the resulting sensorgrams were analyzed using ProteOn Manager software v3.0.

Row | Binder | Fold diff. [fold]
4 | humanized 3A4 antibody Lh1Hh2 (antibody, human IgG1, kappa, V domains shown, human IgG1 kappa) VH: QIQLVQSGAEVKKPGASVKVSCKASGYTFTDDYMSWVRQAPGQGLEWMGDINPYNGDTNYNQKFKGRVTITADKSTSTAYMELSSLRSEDTAVYYCARDPGAMDYWGQGTLVTVSS VL: DIVMTQTPLSLPVTPGEPASISCRSSQSLLHSNGNTYLEWYLQKPGQSPQLLIYTVSNRFSGVPDRFSGSGSGTDFTLKISRVEAEDVGVYYCFQGSHVPLTFGQGTKLEIKR | 13.2
5 | humanized 3A4 antibody Lh1Hh1 (antibody, human IgG1, kappa, V domains shown, 100% humanized frameworks; human IgG1 kappa; also called H1L1) VH: QVQLVQSGAEVKKPGASVKVSCKASGYTFTDDYMSWVRQAPGQGLEWMGDINPYNGDTNYNQKFKGRVTITADTSTSTAYMELSSLRSEDTAVYYCARDPGAMDYWGQGTLVTVSS VL: DIVMTQTPLSLPVTPGEPASISCRSSQSLLHSNGNTYLEWYLQKPGQSPQLLIYTVSNRFSGVPDRFSGSGSGTDFTLKISRVEAEDVGVYYCFQGSHVPLTFGQGTKLEIKR | 29.6
6 | humanized 3A4 antibody Lh1Hh4 (antibody, human IgG1, kappa, V domains shown, human IgG1 kappa) VH: QIQLVQSGAEVKKPGASVKVSCKASGYTFTDDYMSWVKQAPGQGLEWIGDINPYNGDTNYNQKFKGKATLTVDKSTSTAYMELSSLRSEDTAVYYCARDPGAMDYWGQGTLVTVSS VL: DIVMTQTPLSLPVTPGEPASISCRSSQSLLHSNGNTYLEWYLQKPGQSPQLLIYTVSNRFSGVPDRFSGSGSGTDFTLKISRVEAEDVGVYYCFQGSHVPLTFGQGTKLEIKR | 9.3
7 | humanized 3A4 antibody Lh1Hh3 (antibody, human IgG1, kappa, V domains shown, human IgG1 kappa) VH: QIQLVQSGAEVKKPGASVKVSCKASGYTFTDDYMSWVRQAPGQGLEWIGDINPYNGDTNYNQKFKGRATLTVDKSTSTAYMELSSLRSEDTAVYYCARDPGAMDYWGQGTLVTVSS VL: DIVMTQTPLSLPVTPGEPASISCRSSQSLLHSNGNTYLEWYLQKPGQSPQLLIYTVSNRFSGVPDRFSGSGSGTDFTLKISRVEAEDVGVYYCFQGSHVPLTFGQGTKLEIKR | 9.3

Second part, the binder after the results:

Row | Fold diff. [fold] | Binder
8 | 14.3 | humanized 3A4 antibody Lh2Hh3 (antibody, human IgG1, kappa, V domains shown, human IgG1 kappa) VH: QIQLVQSGAEVKKPGASVKVSCKASGYTFTDDYMSWVRQAPGQGLEWIGDINPYNGDTNYNQKFKGRATLTVDKSTSTAYMELSSLRSEDTAVYYCARDPGAMDYWGQGTLVTVSS VL: DVVMTQTPLSLPVTPGEPASISCRSSQSLLHSNGNTYLEWYLQKPGQSPKLLIYTVSNRFSGVPDRFSGSGSGTDFTLKISRVEAEDVGVYYCFQGSHVPLTFGQGTKLEIKR
9 | 15.3 | humanized 3A4 antibody Lh2Hh2 (antibody, human IgG1, kappa, V domains shown, human IgG1 kappa) VH: QIQLVQSGAEVKKPGASVKVSCKASGYTFTDDYMSWVRQAPGQGLEWMGDINPYNGDTNYNQKFKGRVTITADKSTSTAYMELSSLRSEDTAVYYCARDPGAMDYWGQGTLVTVSS VL: DVVMTQTPLSLPVTPGEPASISCRSSQSLLHSNGNTYLEWYLQKPGQSPKLLIYTVSNRFSGVPDRFSGSGSGTDFTLKISRVEAEDVGVYYCFQGSHVPLTFGQGTKLEIKR
10 | 6.4 | humanized 3A4 antibody Lh2Hh4 (antibody, human IgG1, kappa, V domains shown, human IgG1 kappa; 10 mouse framework residues retained; also called H4L2) VH: QIQLVQSGAEVKKPGASVKVSCKASGYTFTDDYMSWVKQAPGQGLEWIGDINPYNGDTNYNQKFKGKATLTVDKSTSTAYMELSSLRSEDTAVYYCARDPGAMDYWGQGTLVTVSS VL: DVVMTQTPLSLPVTPGEPASISCRSSQSLLHSNGNTYLEWYLQKPGQSPKLLIYTVSNRFSGVPDRFSGSGSGTDFTLKISRVEAEDVGVYYCFQGSHVPLTFGQGTKLEIKR
11 | 21.3 | humanized 3A4 antibody Lh2Hh1 (antibody, human IgG1, kappa, V domains shown, human IgG1 kappa) VH: QVQLVQSGAEVKKPGASVKVSCKASGYTFTDDYMSWVRQAPGQGLEWMGDINPYNGDTNYNQKFKGRVTITADTSTSTAYMELSSLRSEDTAVYYCARDPGAMDYWGQGTLVTVSS VL: DVVMTQTPLSLPVTPGEPASISCRSSQSLLHSNGNTYLEWYLQKPGQSPKLLIYTVSNRFSGVPDRFSGSGSGTDFTLKISRVEAEDVGVYYCFQGSHVPLTFGQGTKLEIKR
